Our source for the Kd and dH values is publication PMC5209733, “U24 from Roseolovirus interacts strongly with Nedd4 WW Domains” (Scientific Reports, 2017).

Usually Kd stands for a measure of binding affinity in units of concentration.

The target in assay [1] is hNedd4L-WW3* domain (third WW domain of human Nedd4-like protein, GST tag removed) (human) (UniProt Q96PU5). Briefly: ITC; peptide titrated into the cleaved WW domain (40 to 150 uM) in the cell; 10 mM sodium phosphate, pH 7.4, 25 °C; MicroCal VP-ITC; bimolecular interaction model; three runs (further runs with 100 mM and 500 mM NaCl told in words only).
Assay [2] concerns the target Fyn SH3 (Homo sapiens) (UniProt P06241). Conditions: cited from earlier work.
Assay [3] deals with rNedd4-WW2 domain (second WW domain of rat Nedd4, GST tag removed) (rat) (UniProt Q62940). Briefly: ITC; peptide titrated into the cleaved WW domain (40 to 150 uM) in the cell; 10 mM sodium phosphate, pH 7.4, 25 °C; MicroCal VP-ITC; bimolecular interaction model; three runs (further runs with 100 mM and 500 mM NaCl told in words only). On the technique in general: ITC needs no label: the signal is the heat of the interaction.

For assay [4], the target named is hNedd4-WW3* domain (third WW domain of human Nedd4, GST tag removed) (human) (UniProt P46934). The assay is described as above.
The target of assay [5] is rNedd4-WW3/4 domain (third WW domain of rat Nedd4, GST tag removed) (rat) (UniProt Q62940). Described as above.
Chain of rNedd4-WW3/4 domain (third WW domain of rat Nedd4, GST tag removed) (rat) (Q62940 452-499): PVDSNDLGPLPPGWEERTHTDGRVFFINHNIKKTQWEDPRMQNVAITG

Chain of hNedd4-WW3* domain (third WW domain of human Nedd4, GST tag removed) (human) (P46934 whole entry, the tested form may be a part): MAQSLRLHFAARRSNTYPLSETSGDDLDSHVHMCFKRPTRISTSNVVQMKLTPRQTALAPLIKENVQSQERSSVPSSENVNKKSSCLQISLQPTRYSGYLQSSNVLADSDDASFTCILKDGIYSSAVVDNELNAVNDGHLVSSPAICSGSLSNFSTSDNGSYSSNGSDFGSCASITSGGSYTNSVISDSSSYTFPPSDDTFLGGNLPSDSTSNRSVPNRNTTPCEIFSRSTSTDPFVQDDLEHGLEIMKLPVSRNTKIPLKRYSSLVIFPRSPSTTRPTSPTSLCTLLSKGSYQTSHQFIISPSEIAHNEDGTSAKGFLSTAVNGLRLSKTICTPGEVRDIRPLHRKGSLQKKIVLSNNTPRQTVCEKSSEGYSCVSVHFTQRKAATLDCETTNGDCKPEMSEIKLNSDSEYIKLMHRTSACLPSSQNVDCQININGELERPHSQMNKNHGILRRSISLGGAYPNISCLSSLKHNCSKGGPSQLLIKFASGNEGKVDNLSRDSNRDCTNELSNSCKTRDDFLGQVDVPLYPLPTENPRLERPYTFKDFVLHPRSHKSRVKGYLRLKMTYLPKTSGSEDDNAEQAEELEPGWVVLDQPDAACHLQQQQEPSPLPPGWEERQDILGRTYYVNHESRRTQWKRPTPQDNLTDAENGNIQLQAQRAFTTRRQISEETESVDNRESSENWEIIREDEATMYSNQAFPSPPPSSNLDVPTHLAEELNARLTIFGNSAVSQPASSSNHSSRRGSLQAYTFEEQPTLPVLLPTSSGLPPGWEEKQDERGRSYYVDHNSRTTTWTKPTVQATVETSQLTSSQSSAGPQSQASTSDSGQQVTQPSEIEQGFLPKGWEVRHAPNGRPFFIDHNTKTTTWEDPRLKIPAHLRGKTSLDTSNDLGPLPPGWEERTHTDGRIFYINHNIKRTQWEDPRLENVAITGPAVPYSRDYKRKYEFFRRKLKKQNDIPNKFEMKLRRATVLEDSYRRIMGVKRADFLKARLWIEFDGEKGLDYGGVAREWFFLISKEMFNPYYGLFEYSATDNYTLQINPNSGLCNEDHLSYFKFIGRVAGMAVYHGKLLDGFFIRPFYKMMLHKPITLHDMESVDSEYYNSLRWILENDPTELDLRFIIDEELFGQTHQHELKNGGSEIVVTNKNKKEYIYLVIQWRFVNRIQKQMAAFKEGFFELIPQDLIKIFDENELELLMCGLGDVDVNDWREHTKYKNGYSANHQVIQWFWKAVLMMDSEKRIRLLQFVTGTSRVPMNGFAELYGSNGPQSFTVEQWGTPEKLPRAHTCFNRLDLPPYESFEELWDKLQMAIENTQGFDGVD
Chain of rNedd4-WW2 domain (second WW domain of rat Nedd4, GST tag removed) (rat) (Q62940 whole entry, the tested form may be a part): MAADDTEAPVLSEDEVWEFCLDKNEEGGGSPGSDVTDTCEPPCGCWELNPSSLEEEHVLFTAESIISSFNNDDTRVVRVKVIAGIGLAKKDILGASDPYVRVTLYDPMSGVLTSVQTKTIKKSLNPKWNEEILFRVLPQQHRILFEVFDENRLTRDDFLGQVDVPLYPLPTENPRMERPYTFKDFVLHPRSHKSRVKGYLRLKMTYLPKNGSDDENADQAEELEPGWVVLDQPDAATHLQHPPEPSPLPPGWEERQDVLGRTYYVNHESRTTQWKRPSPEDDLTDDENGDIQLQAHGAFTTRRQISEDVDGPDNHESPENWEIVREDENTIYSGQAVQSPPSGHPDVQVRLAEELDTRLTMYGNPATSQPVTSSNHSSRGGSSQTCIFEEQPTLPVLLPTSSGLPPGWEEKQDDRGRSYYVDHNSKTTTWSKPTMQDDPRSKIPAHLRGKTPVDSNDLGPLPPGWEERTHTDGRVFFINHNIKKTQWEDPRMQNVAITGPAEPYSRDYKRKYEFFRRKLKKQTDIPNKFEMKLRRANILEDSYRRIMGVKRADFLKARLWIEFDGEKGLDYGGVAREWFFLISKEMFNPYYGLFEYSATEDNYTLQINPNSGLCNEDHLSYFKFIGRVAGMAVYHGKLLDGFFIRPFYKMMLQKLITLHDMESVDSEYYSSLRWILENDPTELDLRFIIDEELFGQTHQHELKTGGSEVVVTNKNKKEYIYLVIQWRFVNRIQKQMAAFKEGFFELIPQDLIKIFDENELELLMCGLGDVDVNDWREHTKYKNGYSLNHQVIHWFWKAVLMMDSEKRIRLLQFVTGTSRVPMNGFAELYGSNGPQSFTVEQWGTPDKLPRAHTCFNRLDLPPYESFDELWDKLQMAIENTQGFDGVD
Chain of hNedd4L-WW3* domain (third WW domain of human Nedd4-like protein, GST tag removed) (human) (Q96PU5 496-539): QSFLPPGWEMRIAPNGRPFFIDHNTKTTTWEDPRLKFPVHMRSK
Chain of Fyn SH3 (Homo sapiens) (P06241 79-146): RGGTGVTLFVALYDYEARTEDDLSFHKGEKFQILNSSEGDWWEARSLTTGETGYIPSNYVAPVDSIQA

Nogo-A PY motif peptide: in assay [1], the Kd was determined as 4 µM and the dH is -13.8 kcal/mol.
U24-6A (from UniProt Q69559): in assay [2], the Kd was 5000 µM.
Turning to “U24-6A peptide (15-mer, N-terminus of U24 from HHV-6A) (from UniProt Q69559 1-15)”, in assay [3], the dissociation constant Kd came out at 155 µM and the dH is -12.9 kcal/mol. In assay [4], the Kd stood at 9.7 µM and the dH was -12.7 kcal/mol.
On to “U24-7 peptide (15-mer, N-terminus of U24 from HHV-7)”, for which the Kd was determined as 21 µM in assay [5], 87 µM in assay [3] and 1.98 µM in assay [4]. In addition, the dH in assay [5] was -15.2 kcal/mol; in assay [3], -18.2 kcal/mol; in assay [4], -16.8 kcal/mol.
